The source of these data is PMC5364394.

In this series the target is FLAG-SF2/ASF purified (human, UniProt Q07955 1-248). As to the kind of experiment: EMSA. Conditions: protein: recombinant; tags: FLAG; label: IRDye-800. A general note: In EMSA bound probe runs differently from free probe, usually more slowly.
Chain of FLAG-SF2/ASF purified (Q07955 whole entry): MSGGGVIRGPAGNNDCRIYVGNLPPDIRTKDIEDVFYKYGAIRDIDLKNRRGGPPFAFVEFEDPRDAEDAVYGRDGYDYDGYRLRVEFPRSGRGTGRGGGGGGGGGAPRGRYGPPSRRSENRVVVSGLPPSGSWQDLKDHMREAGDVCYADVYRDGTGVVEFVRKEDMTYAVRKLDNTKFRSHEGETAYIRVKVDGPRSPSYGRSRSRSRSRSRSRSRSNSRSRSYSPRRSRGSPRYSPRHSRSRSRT

With GACAUACUGACAAGGAUGUC (ssRNA) [H7N9-NS-529-548 (NEP-ESE, 540A, WT)], the binding result is recorded as “binds”.
